Assay results published in PMC11063343.

Molecular target: cellugyrin Inner loop 1A peptide
Experiment: SPR

full length SARS-CoV-2 spike protein (from UniProt P0DTC2) (natural protein)
maximum RU: 220 RU
